Results published in the supplement of paper PMC11246515.
± gives the standard deviation of the averaged measurements.

Assay: total protein half-life in vivo (active degradation + dilution); higher = more stable protein
[1] = E. coli NCM3722 delta-clpP delta-lon delta-hslV, growth: N-lim chemostat, doubling time 6 h
[2] = E. coli NCM3722 delta-clpP, growth: N-lim chemostat, doubling time 6 h
[3] = E. coli NCM3722 delta-hslV, growth: N-lim chemostat, doubling time 6 h
[4] = E. coli NCM3722 delta-lon, growth: N-lim chemostat, doubling time 6 h
[5] = E. coli NCM3722 delta-smpB, growth: N-lim chemostat, doubling time 6 h
[6] = wild type E. coli NCM3722, growth: C-lim chemostat, doubling time 3 h
[7] = wild type E. coli NCM3722, growth: C-lim chemostat, doubling time 12 h
[8] = wild type E. coli NCM3722, growth: N-lim chemostat, doubling time 6 h
[9] = wild type E. coli NCM3722, growth: N-lim chemostat, doubling time 12 h
[10] = wild type E. coli NCM3722, growth: P-lim chemostat, doubling time 6 h
[11] = wild type E. coli NCM3722, growth: P-lim chemostat, doubling time 12 h
[12] = wild type E. coli NCM3722, growth: C-lim chemostat, doubling time 6 h

Sequence	total protein half-life in vivo [1]	total protein half-life in vivo [2]	total protein half-life in vivo [3]	total protein half-life in vivo [4]	total protein half-life in vivo [5]	total protein half-life in vivo [6]	total protein half-life in vivo [7]	total protein half-life in vivo [8]	total protein half-life in vivo [9]	total protein half-life in vivo [10]	total protein half-life in vivo [11]	total protein half-life in vivo [12]
MTKLQLKYRELKIISVIAASENISHAATVLGIAQANVSKYLADFESKVGLKVFDRTTRQLMLTPFGTALLPYINDMLDRNEQLNNFIADYKHEKRGRVTIYAPTGIITYLSKHVIDKIKDIGDITLSLKTCNLERNAFYEGVEFPDDCDVLISYAPPKDESLVASFITQYAVTAYASQRYLEKHPISRPDELEHHSCILIDSMMIDDANIWRFNVAGSKEVRDYRVKGNYVCDNTQSALELARNHLGIVFAPDKSVQSDLQDGTLVPCFQQPYEWWLDLVAIFRKREYQPWRVQYVLDEMLREIRHQLAQSQQLRPEQAAESED	5.588 ± 0.0059 h	5.07 ± 0.4 h	4.7 ± 0.45 h	4.98 ± 0.36 h	4.54 ± 0.47 h	2.74 ± 0.18 h	10.9 ± 2 h	4.15 ± 0.18 h	7.04 ± 0.43 h	6.03 ± 0.88 h	10.1 ± 0.15 h	
MTKMSRYALITALAMFLAGCVGQREPAPVEEVKPAPEQPAEPQQPVPTVPSVPTIPQQPGPIEHEDQTAPPAPHIRHYDWNGAMQPMVSKMLGADGVTAGSVLLVDSVNNRTNGSLNAAEATETLRNALANNGKFTLVSAQQLSMAKQQLGLSPQDSLGTRSKAIGIARNVGAHYVLYSSASGNVNAPTLQMQLMLVQTGEIIWSGKGAVSQQ [P0AB38]	5.22 ± 0.26 h	5.7 ± 0.39 h	6.59 ± 0.23 h	6.43 ± 0.46 h	6.495 ± 0.062 h	3.38 ± 0.095 h	10.9 ± 0.91 h	6.102 ± 0.019 h	12.3 ± 0.41 h	5.94 ± 0.24 h	11.7 ± 1.2 h	6.19 ± 0.46 h
MTKSELIERLATQQSHIPAKTVEDAVKEMLEHMASTLAQGERIEIRGFGSFSLHYRAPRTGRNPKTGDKVELEGKYVPHFKPGKELRDRANIYG [P0A6Y1]	6.88 ± 0.81 h	5.26 ± 0.3 h	5.99 ± 1.1 h	6.3 ± 0.4 h	4.64 ± 0.21 h	2.47 ± 0.093 h	6.05 ± 0.37 h	4.71 ± 0.18 h	8.31 ± 2.4 h	2.62 ± 0.24 h	5.3658 ± 0.0042 h	4.3 ± 0.44 h
MTKVLLSHPPRPASHNSSRAMVWVRKNLFSSWSNSLLTIGCIWLMWELIPPLLNWAFLQANWVGSTRADCTKAGACWVFIHERFGQFMYGLYPHDQRWRINLALLIGLVSIAPMFWKILPHRGRYIAAWAVIYPLIVWWLMYGGFFALERVETRQWGGLTLTLIIASVGIAGALPWGILLALGRRSHMPIVRILSVIFIEFWRGVPLITVLFMSSVMLPLFMAEGTSIDKLIRALVGVILFQSAYVAEVVRGGLQALPKGQYEAAESLALGYWKTQGLVILPQALKLVIPGLVNTIIALFKDTSLVIIIGLFDLFSSVQQATVDPAWLGMSTEGYVFAALIYWIFCFSMSRYSQYLEKRFNTGRTPH								4.17 h				
MTLEWWFAYLLTSIILSLSPGSGAINTMTTSLNHGYRGAVASIAGLQTGLAIHIVLVGVGLGTLFSRSVIAFEVLKWAGAAYLIWLGIQQWRAAGAIDLKSLASTQSRRHLFQRAVFVNLTNPKSIVFLAALFPQFIMPQQPQLMQYIVLGVTTIVVDIIVMIGYATLAQRIALWIKGPKQMKALNKIFGSLFMLVGALLASARHA [P0AG34]		2.02 h	1.51 h		1.73 ± 0.21 h	0.913 h	2.28 h	2.62 h			3.7 h	1.47 h
MTLFTTLLVLIFERLFKLGEHWQLDHRLEAFFRRVKHFSLGRTLGMTIIAMGVTFLLLRALQGVLFNVPTLLVWLLIGLLCIGAGKVRLHYHAYLTAASRNDSHARATMAGELTMIHGVPAGCDEREYLRELQNALLWINFRFYLAPLFWLIVGGTWGPVTLMGYAFLRAWQYWLARYQTPHHRLQSGIDAVLHVLDWVPVRLAGVVYALIGHGEKALPAWFASLGDFHTSQYQVLTRLAQFSLAREPHVDKVETPKAAVSMAKKTSFVVVVVIALLTIYGALV [P0AE14]	6.33 ± 0.16 h	6.29 h		5.3 ± 0.39 h	6.02 ± 0.49 h	3.246 ± 0.031 h	13.1 ± 3.9 h	6.63 ± 0.9 h	14 ± 2.6 h			5.626 ± 0.0074 h
MTLLALGINHKTAPVSLRERVSFSPDKLDQALDSLLAQPMVQGGVVLSTCNRTELYLSVEEQDNLQEALIRWLCDYHNLNEEDLRKSLYWHQDNDAVSHLMRVASGLDSLVLGEPQILGQVKKAFADSQKGHMKASELERMFQKSFSVAKRVRTETDIGASAVSVAFAACTLARQIFESLSTVTVLLVGAGETIELVARHLREHKVQKMIIANRTRERAQILADEVGAEVIALSDIDERLREADIIISSTASPLPIIGKGMVERALKSRRNQPMLLVDIAVPRDVEPEVGKLANAYLYSVDDLQSIISHNLAQRKAAAVEAETIVAQETSEFMAWLRAQSASETIREYRSQAEQVRDELTAKALAALEQGGDAQAIMQDLAWKLTNRLIHAPTKSLQQAARDGDNERLNILRDSLGLE [P0A6X1]	4.33 ± 0.069 h	2.95 ± 0.26 h	1.55 h	1.59 ± 0.083 h	1.51 ± 0.25 h	1.03 h	2.76 ± 0.68 h	1.35 ± 0.31 h	2.08 h	1.29 ± 0.43 h	1.9 h	1.84 ± 0.15 h
MTLLGTALRPAATRVMLLGSGELGKEVAIECQRLGVEVIAVDRYADAPAMHVAHRSHVINMLDGDALRRVVELEKPHYIVPEIEAIATDMLIQLEEEGLNVVPCARATKLTMNREGIRRLAAEELQLPTSTYRFADSESLFREAVADIGYPCIVKPVMSSSGKGQTFIRSAEQLAQAWKYAQQGGRAGAGRVIVEGVVKFDFEITLLTVSAVDGVHFCAPVGHRQEDGDYRESWQPQQMSPLALERAQEIARKVVLALGGYGLFGVELFVCGDEVIFSEVSPRPHDTGMVTLISQDLSEFALHVRAFLGLPVGGIRQYGPAASAVILPQLTSQNVTFDNVQNAVGADLQIRLFGKPEIDGSRRLGVALATAESVVDAIERAKHAAGQVKVQG	5.17 ± 0.51 h	4.76 ± 0.66 h	4.361 ± 0.017 h	4.5 ± 0.32 h	4.11 ± 0.3 h	3.033 ± 0.014 h	10.2 ± 0.59 h	4.28 ± 0.2 h	6.95 ± 0.21 h	6.14 ± 0.1 h	10.1 ± 0.19 h	5.96 ± 0.31 h
